Km and kcat data for one substance are collected here from PMC8904598, “Structural snapshots of V/A-ATPase reveal the rotary catalytic mechanism of rotary ATPases” (Nature Communications, 2022).

What is called Km is the concentration of substrate that gives half-maximal velocity. The term kcat denotes the number of substrate molecules converted per active site and unit of time at saturation.

This data set deals with T1, Nc1ncnc2c1ncn2[C@@H]1O[C@H](COP(=O)(O)OP(=O)(O)OP(=O)(O)O)[C@@H](O)[C@H]1O.
T1 construct: holo V/A-ATPase (A3B3D1F1 + E2G2d1a1c12), C-terminal His3 tag on each c subunit, purified from T. thermophilus membranes, nucleotide removed by EDTA/phosphate dialysis, MSP1E3D1/DMPC nanodiscs; models cover V1EG; with V-type ATP synthase subunit D; V-type ATP synthase subunit F; V-type ATP synthase subunit E; V-type ATP synthase subunit G; V-type ATP synthase subunit C; V-type ATP synthase subunit I; V-type ATP synthase subunit K
The experiment in a line: purified protein. In kind it is biochemical, Thermus thermophilus. As to conditions: nanodisc enzyme, ATP-Mg, 50 mM Tris-HCl pH 8.0, 100 mM KCl, 25 °C, ATP-regenerating system, all rows carry A/S232A, A/T235S.

Regarding “Tth V/A-ATPase (A/S232A, T235S; TSSA mutant), nanodisc-incorporated, nucleotide-free (Thermus thermophilus HB8; Q56403:S232A/Q56403:T235S)”, the Km is reported as 394 µM and the kcat was found to be 22 s⁻¹.
